In patent US20240002434A1 (ICHNOS SCIENCES, published 2024):
Several values for one entry are separate records, joined by “and”; a condition that tells them apart may be missing. Equal values may be shown once.

Legend:
[1] = molecular target: T1, Human EGFR-his (human, UniProt P00533 25-645); experiment: SPR, BEAT®3 captured on Protein G chip, EGFR-his as analyte; sample held at pH 11.2 for 0 h; mean of 2
T1 construct: Soluble his-tagged antigen injected as analyte in SPR; also called hsEGFR; not shown: his tag

[2] = molecular target: EGFR on SK-BR-3 target cells (UniProt P00533 25-1210, limits assumed); experiment: cell-based or functional assay
[3] = molecular target: CD3ε on Jurkat-NFAT responder cells (UniProt P07766 23-207); experiment: cell-based or functional assay
Chain of CD3ε on Jurkat-NFAT responder cells (P07766 23-207): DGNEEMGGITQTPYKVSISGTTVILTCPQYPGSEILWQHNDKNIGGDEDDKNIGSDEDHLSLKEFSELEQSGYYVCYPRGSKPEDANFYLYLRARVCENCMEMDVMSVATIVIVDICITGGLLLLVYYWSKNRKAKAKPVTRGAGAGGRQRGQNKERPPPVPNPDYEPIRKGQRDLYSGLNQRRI

[4] = molecular target: T1, Human EGFR-his; experiment: SPR, BEAT®3 captured on Protein G chip, EGFR-his as analyte; sample held at pH 11.2 for 4 h
[5] = molecular target: T1, Human EGFR-his; experiment: SPR, BEAT®3 captured on Protein G chip, EGFR-his as analyte; sample held at pH 11.2 for 2 h
[6] = molecular target: T1, Human EGFR-his; experiment: SPR, BEAT®3 captured on Protein G chip, EGFR-his as analyte; sample held at pH 11.2 for 24 h
[7] = molecular target: T1, Human EGFR-his; experiment: SPR, BEAT®3 sample captured on Protein G chip, EGFR-his as analyte; mean of 4 reference replicates
[8] = molecular target: T1, Human EGFR-his; experiment: SPR, BEAT®3 captured on Protein G chip, EGFR-his as analyte; sample held at pH 11.2 for 24 h; mean of 2
[9] = molecular target: T1, Human EGFR-his; experiment: SPR, BEAT®3 captured on Protein G chip, EGFR-his as analyte; sample held at pH 11.2 for 4 h; mean of 2
[10] = molecular target: T1, Human EGFR-his; experiment: SPR, BEAT®3 captured on Protein G chip, EGFR-his as analyte; sample held at pH 11.2 for 2 h; mean of 2
[11] = molecular target: T1, Human EGFR-his; experiment: SPR, BEAT®3 captured on Protein G chip, EGFR-his as analyte; sample held at pH 11.2 for 0 h
[12] = molecular target: T2, human FcγR3a (human, UniProt P08637 17-208, limits assumed); experiment: SPR (Biacore), mean KD; Ab1 after 1 h at pH 11.2
T2 construct: The construct and allotype (V158/F158) used in the Biacore assay are not described; also called FcgR3a
T2 sequence (P08637 17-208 limits assumed): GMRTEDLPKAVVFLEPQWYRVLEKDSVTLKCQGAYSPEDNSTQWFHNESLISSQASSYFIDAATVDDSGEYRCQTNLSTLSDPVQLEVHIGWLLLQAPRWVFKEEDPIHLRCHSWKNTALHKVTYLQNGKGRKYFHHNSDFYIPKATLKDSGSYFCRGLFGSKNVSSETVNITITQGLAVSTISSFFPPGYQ

[13] = molecular target: T3, human OX40 (human, UniProt P43489 29-214, limits assumed); experiment: SPR (Biacore), mean KD; Ab1 after 1 h at pH 11.2
T3 construct: The construct used in the Biacore assay is not described; also called OX40R; OX40 receptor
T3 sequence (looked up): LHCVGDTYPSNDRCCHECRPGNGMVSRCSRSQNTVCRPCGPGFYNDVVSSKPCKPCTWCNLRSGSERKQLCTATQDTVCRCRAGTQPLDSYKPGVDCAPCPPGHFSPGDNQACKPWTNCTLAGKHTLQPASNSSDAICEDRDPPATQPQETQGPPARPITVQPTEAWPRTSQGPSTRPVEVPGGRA

[14] = molecular target: T2, human FcγR3a; experiment: SPR (Biacore), mean KD; Ab1 after 2 h at pH 11.2
[15] = molecular target: T3, human OX40; experiment: SPR (Biacore), mean KD; Ab1 after 2 h at pH 11.2
[16] = molecular target: T2, human FcγR3a; experiment: SPR (Biacore), mean KD; Ab1 brought to pH 11.2 and neutralized at once (t0)
[17] = molecular target: T3, human OX40; experiment: as above
[18] = molecular target: T2, human FcγR3a; experiment: SPR (Biacore), mean KD; Ab1 protein A eluate without high pH treatment (reference)
[19] = molecular target: T3, human OX40; experiment: as above
[20] = molecular target: T4, human CD38 (human, UniProt P28907 43-300, limits assumed); experiment: surface plasmon resonance; mean KD; high pH hold time 0 h
T4 construct: also called hsCD38; cluster of differentiation 38

[21] = molecular target: T4, human CD38; experiment: binding affinity assay; sample after 0.8M Arg, pH 4.0
[22] = molecular target: T4, human CD38; experiment: binding affinity assay; sample after 0.8M Arg, pH 5.5
[23] = molecular target: T4, human CD38; experiment: surface plasmon resonance; mean KD; high pH hold time 2 h
[24] = molecular target: T4, human CD38; experiment: binding affinity assay; reference sample, no treatment
[25] = molecular target: T4, human CD38; experiment: binding affinity assay; sample after high pH treatment
[26] = molecular target: T4, human CD38; experiment: binding affinity assay; sample after S/D treatment
[27] = molecular target: T4, human CD38; experiment: binding affinity assay; sample after S/D treatment, against RS
[28] = molecular target: T4, human CD38; experiment: binding affinity assay; sample after high pH treatment, against RS
[29] = molecular target: T4, human CD38; experiment: binding affinity assay; sample after 0.8M Arg, pH 4.0, against RS
[30] = molecular target: T4, human CD38; experiment: surface plasmon resonance; mean KD; high pH hold time 1 h
[31] = molecular target: T4, human CD38; experiment: surface plasmon resonance; mean KD; PA eluate without high pH treatment
[32] = molecular target: T4, human CD38; experiment: binding affinity assay; sample after 0.8M Arg, pH 5.5, against RS

B1: BEAT®3 (bispecific antibody, human IgG1, kappa, L234A L235A)
chain 1: EVQLVESGGGLVQPGGSLRLSCAASGFTFNTYAMNWVRQAPGKGLEWVARIRSKYNNYATYYADSVKSRFTISRDDSKNTLYLQMNSLRAEDTAVYYCVRHGNFGNSYVSYFAYWGQGTTVTVSSGGGGSGGGGSGGGGSEIVVTQSPATLSVSPGERATLSCRSSTGAVTESNYANWVQEKPGQAFRGLIGGANKRAPGVPARFSGSLSGDEATLTISSLQSEDFAVYYCALFYSNTWVFGQGTKLEIKGGGGTQVQLQESGPGLVKPSETLSLTCTVSGGSVSSGDYYWTWIRQSPGKGLEWIGHIYYSGNTNYNPSLKSRLTISIDTSKTQFSLKLSSVTAADTAIYYCVRDRVTGAFDIWGQGTMVTVSSASTKGPSVFPLAPSSKSTSGGTAALGCLVKDYFPEPVTVSWNSGALTSGVHTFPAVLQSSGLYSLSSVVTVPSSSLGTQTYICNVNHKPSNTKVDKKVEPKSCDKTHTCPPCPAPEAAGGPSVFLFPPKPKDTLMISRTPEVTCVVVDVSHEDPEVQFKWYVDGVEVHNAKTKPREEQYNSTFRVVSVLTVLHQDWLNGKEYKCKVSNKALPAPIEKTISKTKGQPREPAVYTLPPSREEMTKNQVKLVCLVTGFYPSDIAVEWESSGQPENNYYTTPPMLDSDGSFSLVSWLNVDKSRWQQGNIFSCSVMHEALHNRFTQKSLSLSPG
chain 2: not shown
chain 3: DKTHTCPPCPAPEAAGGPSVFLFPPKPKDTLMISRTPEVTCVVVDVSHEDPEVKFNWYVDGVEVHNAKTKPREEQYNSTYRVVSVLTVLHQDWLNGKEYKCKVSNKALPAPIEKTISKAKGQPREPEVATFPPSRDELTKNQVTLVCLVTGFYPSDIAVEWESNGQPENNYKTDPPLLESDGSFALSSRLRVDKSRWQQGNVFSCSVMHEALHNHYTQKSLSLSPG
[1]
  Average rel KD: 0.98 ratio to reference
[2]
  Relative potency (%) (Jurkat-NFAT luciferase reporter, EC50reference/EC50sample x 100, reference High pH t0): 97% and 85% and 67%
[3]
  Relative potency (%) (Jurkat-NFAT luciferase reporter, EC50reference/EC50sample x 100, reference High pH t0): 97% and 85% and 67%
[4]
  Relative KD R1: 1.11 ratio to reference
[5]
  Relative KD R1: 1.02 ratio to reference
[6]
  Relative KD R1: 1.17 ratio to reference
[7]
  Average rel KD: 1 ratio to reference
[8]
  Average rel KD: 1.15 ratio to reference
[9]
  Average rel KD: 1.09 ratio to reference
[10]
  Average rel KD: 1.02 ratio to reference
[11]
  Relative KD R1: 0.988 ratio to reference

B2: Ab1 (antibody, human IgG1, kappa)
chain 1: not shown
chain 2: EIVLTQSPATLSLSPGERATLSCRASSSVSYMHWYQQKPGQAPRPWIYATSNRATGIPARFSGSGSGTDYTLTISSLEPEDFAVYYCQQWSSNPWTFGQGTKVEIKRTVAAPSVFIFPPSDEQLKSGTASVVCLLNNFYPREAKVQWKVDNALQSGNSQESVTEQDSKDSTYSLSSTLTLSKADYEKHKVYACEVTHQGLSSPVTKSFNRGEC
notes: The samples PA eluate, t0, t1 and t2 are the same antibody before and after incubation at pH 11.2 for 0, 1 and 2 h; also called humanized IgG1; PA eluate
[12]
  Kd: 744 nM
[13]
  Kd: 207 nM
[14]
  Kd: 638 nM
[15]
  Kd: 224 nM
[16]
  Kd: 760 nM
[17]
  Kd: 229 nM
[18]
  Kd: 689 nM
[19]
  Kd: 198 nM

B3: BEAT®2 (bispecific antibody, human IgG1, kappa, L234A L235A)
chain 1: not shown
chain 2: QVTLKESGPTLVKPTQTLTLTCTFSGLSLSTSGKGVGWIRQPPGKALEWLAHIWWDDDKRYNPALKSRLTITKDTSKNQVVLTMTNMDPVDTATYYCARIELGRSYVMDYWGQGTLVTVSSASTKGPSVFPLAPSSKSTSGGTAALGCLVKDYFPEPVTVSWNSGALTSGVHTFPAVLQSSGLYSLSSVVTVPSSSLGTQTYICNVNHKPSNTKVDKKVEPKSCDKTHTCPPCPAPEAAGGPSVFLFPPKPKDTLMISRTPEVTCVVVDVSHEDPEVQFKWYVDGVEVHNAKTKPREEQYNSTFRVVSVLTVLHQDWLNGKEYKCKVSNKALPAPIEKTISKTKGQPREPAVYTLPPSREEMTKNQVKLVCLVTGFYPSDIAVEWESSGQPENNYYTTPPMLDSDGSFSLVSWLNVDKSRWQQGNIFSCSVMHEALHNRFTQKSLSLSPG
chain 3: not shown
[20]
  Kd: 0.504 nM
[21]
  Kd: 0.507 nM
  koff: 0.000521 s⁻¹
  kon: 1.03e+06 M⁻¹ s⁻¹
[22]
  Kd: 0.439 nM
  koff: 0.000459 s⁻¹
  kon: 1.05e+06 M⁻¹ s⁻¹
[23]
  Kd: 0.485 nM
[24]
  % deviation EC50: 0%
  Kd: 0.442 nM
  koff: 0.000457 s⁻¹
  kon: 1.03e+06 M⁻¹ s⁻¹
[25]
  Kd: 0.467 nM
  koff: 0.000483 s⁻¹
  kon: 1.04e+06 M⁻¹ s⁻¹
[26]
  Kd: 0.341 nM
  koff: 0.000376 s⁻¹
  kon: 1.11e+06 M⁻¹ s⁻¹
[27]
  % deviation EC50: -15.4%
[28]
  % deviation EC50: 1.7%
[29]
  % deviation EC50: 3.5%
[30]
  Kd: 0.547 nM
[31]
  Kd: 0.483 nM
[32]
  % deviation EC50: 0.7%
